Reference: a protein production outcome set (Wang et al. 2014)
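Note: failed if final PepcDB status was selected cloned or expressed and not failed if soluble or beyond.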

Assay: label from the status in PepcDB records
With “MSVEKKVNDLLQKMTIEEKVYQLTSILIQDILENDKFSPQKAKEKIPHGIGQITRLAGASNLSPQEAAKTANEIQKFLIENTRLGIPAMIHEESCSGFMAKGATVFPQSIGVACTFDNEIVEELAKVIRTQMKAVGAHQALAPLIDVARDARWGRVEETFGEDPYLVANMAVSYVKGLQGDDIKKGIVATGKHFVGYAMSEGGMNWAPVHIPERELREVYLYPFEVAVKVAGLKSIMPAYHEIDGIPCHANRKLLTDIARNEWGFDGIYVSDYSGVRNLLDYHKSVKTYEEAAALSLWAGLDIELPKIECFTEEFIKALKEGKFDMTLVDAAVKRVLEMKFRLGLFDNPYIKTDGIVELFDNKEQRQLSRRVAQESMVLLKNDNFLPLSKDSKKIAVIGPNANSVRNLLGDYSYPAHIATLEMFFIKEDKGVGNEEEFVRNVINMKSIFEAIKDKVSSNTEVVYAKGCDVNSQDRSGFEEAKKAAADADAVILVVGDKAGLRLDCTSGESRDRASLRLPGVQEDLVKEIVSVNPNTVVVLVNGRPVALDWIMENVKAVLEAWFPGEEGANAVADVLFGDYNPGGKLAISFPRDVGQVPVYYGHKPSGGKSCWHGDYVEMSTKPLLPFGYGLSYTTFEYKNFAIEKEKIGMDESIKISVEIENTGKYEGDEIVQLYTRKEEYLVTRPVKELKGYKRVHLKPGEKKKVVFELYPDLFAFYDYDMNRVVTPGVVEVMIGASSEDIKFTGTFEIVGSKKDAKELKHYFSKVWCE” the protein production was “failed”. In the case of “MSVGTSSAPGARQVPRPLAPRTSGDPADLGIDPDQLPDGLVVADEHGRVVCFNAAAVRITATPAAEALGQLLESALPLEDLEGRRWWQLTDPYGGLAIRVRQPERNLLLPGGREVLVTARYVRAERLGPVHRVVVTLRDTEARRRTERSHAELIATVAHELRSPLTSVKGFTATLLAKWERFTDDQKRLMLETVDADADRVTRLIAELLDISRIDSGRLEVRRQPVDIGAAVGRHIQAYVASGLEADRFLLRLAQPLPDLWADPDKVDQVLSNLLENAVRHGEGTVTIDVTPTASPREGEDTGTSVTVSDEGAGIPEESMNRVFTRFWRGSKRGGTGLGLYIVKGIVEAHGGTITVGRAPGGGAEFRFTLPVAAPAYLT”, the protein production is reported as “failed”. In the case of “MSVKAYLELIRVHNVVGSAVSAFMGYVIATTWKFTPLFFLPLLVVSLIAAGGYVINDVYDIEVDKINKPERPLPSGRIAVNIARRFSIVLFAVGLIISIPLGLIPFGFALITIVLLYEYARSLKKLGLVGNFIVALTSALSAYYGGLASGSLLGNFIIPTIYIFFFTLSREFVKGIEDIEGDKRNGVNTLAVKLGEKSTWIIAKIILGILIFTSPLPYFLGFNVIYLIGILALDVLLVYILILHNTIESATKARSLMKIYAIGTLIVFTLGSLRI”, the protein production is reported as “failed”. In the case of “MSVKMKKCSREDLQTLQQLSIETFNDTFKEQNSPENMKAYLESAFNTEQLEKELSNMSSQFFFIYFDHEIAGYVKVNIDDAQSEEMGAESLEIERIYIKNSFQKHGLGKHLLNKAIEIALERNKKNIWLGVWEKNENAIAFYKKMGFVQTGAHSFYMGDEEQTDLIMAKTLILEHHHHHH”, the protein production is reported as “not failed”. In the case of “MSVKVMKRLGTLLLLVCVLIILIPQSASAHAYVVKSNPTENETLKKAPSVVKIEFDEDIQVSRFNTLYVRDTSGKRVDLKDAHIDKKNKKLLEAGLKENLKNGLYSIQWKAISADGHPIQGVIPFRIGLAEAETDDVQVEEMGYVPQIDMIMERGILYTSFSLFIGVLFFNLIMYKGNATSVRSRSKNIIWISLFGILISLLFNLPLQAKINADVSWLEAFNPLLLKETLQLSVFGYVWITQMVLISTLIIVTYFAVKHEKFSSFKVWSIPILLFIGLLVMKAFNSHAYGLKFKDIAVVMDFLHLFAASLWVGGLSSIILLLRNEDNKWHMYWDMIKRFSPWATGAVIVILITGLFNSTFFIPTIHSLFDTKYGLVLLTKILLFIFMGILGIIHYVKGRMRAQQGLGATVKVEFIIGIIIFVIVAFMTNVQTPPMPPTGPFTESKQLDNGYEMTLNVSPNRVGQNIFHITLKDENGQPVTDMEQIILTTQSLDMNMGKGSFKVSAVSPGEYEAEGMYINMTGNWNIQVHGLTKSLDSFDTDYKFIVGGR”, the protein production is reported as “failed”. With “MSVLAIIFLLNLKPTIYSIVGIFLIIILDVTVAVALYFLLRPVSKNISMLMSLFRIVYAAIFTTALYKIHDLTAFYSILDLGYIFFGIHLFLLGFLVYKSGYMPKWLGALIFIASTGYIIDPLLRFSGYAVEIGMYTFFGEVLFAFWLVIKGRKLSEVVSTP” the protein production was “failed”. For “MSVLQGFEEVNMTAPRGKLSMLVTKDVVRFNKATAIALGYPAYVKVLINDKTKQFAVKPCKQSDANAVKFSKPEGKQTASVNIKDVMVLDSVLKYFKLDEPQDGQVTFQSMQGTFYPEERVAMFSVADAKAGVMKKRGRKKSESEEA”, the protein production was “failed”. In the case of “MSVNMDELRHQVMINQFVLAAGCAADQAKQLLQAAHWQFETALSTFFQETNIPNSHHHH”, the protein production is reported as “not failed”. With “MSVNTNEGSKNLWKDLPLELLSSVMTFLEIKDNVRASVVCKSWFEAAVSVRVIDKSPWLMYFPETKNTYDFYDPSNCKKYTMELPKSLVGFIVRYSKDGWLLMSQEDSSHFVLFNPFTMDVVALPFLHLFTYYQLVGFSSAPTSSECVVFTIKDYDPGHVTIRTWSPGQTMWTSMQVESQFLDVDHNNVVFSNGVFYCLNQRNHVAVFDPSLRTWNVLDVPPPRCPDDKSWNEGKFMVGYKGDILVIRTYENKDPLVFKLDLTRGIWEEKDTLGSLTIFVSRKSCESRTYVKDGMLRNSVYFPELCYNEKQSVVYSFDEGRYHLREHDLDWGKQLSSDNIWIEPPKNAFELV” the protein production was “failed”. With “MSVPTTMFRLTGRDYPPAKLSHASLIIIDAQKEYLSGPLKLSGMDEAVANIARLLDAARKSGRPIIHVRHLGTVGGRFDPQGPAGQFIPGLEPLEGEIVIEKRMPNAFKNTKLHETLQELGHLDLIVCGFMSHSSVSTTVRRAKDYGYRCTLVEDASATRDLAFKDGVIPAAQIHQCEMAVMADNFACVAPTASLI” the protein production was “not failed”. For “MSVQLKCDAVNCVYNRSHLCSAEEIEVQGGETTGGDATFCGTFSSKSLGNFVSSLGNMNYSGSLKQAVSAEPIMDPKVHCNAVNCTYNDQRYCHADQVEIRNEVSHTAEETECQTFYPKMSLEHHHHHH”, the protein production was “failed”. With “MSVQTIERLQDYLLPEWVSIFDIADFSGRMLRIRGDIRPALLRLASRLAELLNESPGPRPWYPHVASHMRRRVNPPPETWLALGPEKRGYKSYAHSGVFIGGRGLSVRFILKDEAIEERKNLGRWMSRSGPAFEQWKKKVGDLRDFGPVHDDPMADPPKVEWDPRVFGERLGSLKSASLDIGFRVTFDTSLAGIVKTIRTFDLLYAEAEKGS” the protein production was “not failed”. With “MSVSGQPVLRAAVVTLQGRREDNQDFAAIAEPSPRDAAARGFVAAVADGIGGARGGRVAAEVSVRSFMEAYYGLSETLGMQQLLDRCLGSANRWVHAMGRLDPELAHMGTTFSGLIFRGRRAYLVHVGDSRIYRLRGDEPELLTSDHTLSGPGLDHVLYRAVGLDPGLRIDYSVYPLEPHDRFLLCSDGLHGSLQQEQIREILQERATPETTAEALARLAFEQGSQDNITALVVDVIALPPAEKQSLRLAIESLPLLDLPEVGDEVDGFRLERLLSSGRYSALFLAADTLGQDKPVVVKFPHPRVASEREYYDAFVREAWIGARVKSPWVGEILEQTPGRQSRLYSVMPFYPGASLEHELARRPRIGLEAGIDLALKLCKAVHALHRQQIVHRDIKPDNVLLDPEGGLKLLDLGIARLPAWDEDQADPIPGTPSYMAPEMFQGERGSIATDVFALGVTLYRTFAGGAYPYGEVEPFSTPRFGSPRPLTAHRPDLPAWLDAVLARAIAADPAQRPADAVELAYELEAGLEKGGGRRPPRRPLPLYERNPLQFWKAVAALLLALLAMAGLRLSLSCRPPSEAASRNNPLIHDNGDSR” the protein production was “failed”. In the case of “MSVTTTETTGTAPALPRKTLGLAMIGLAVMMTLLHYAGLLPAWLHRLPEAIIPPFATWLDAIFNFVKDDLGLLALTRLLTDGLEVVLDATANLLFGKRRWPNIGPIPWSAIAAMTAVVGYYLGGWRMALLAGGTFVWTAMIGQWDIAMQTMSVLVVAAPLAFAIGLVLGISAWKSPSFDAVLRPVLAVLQTLPFFTYLLPAVIFFKVGPTAGAVATTVYAIPPMILMTTLGLQKVSPEVVEAGKMSGCTRWQMLRHVYIPAARTEILVGVNQVIMLCLAMVVLTAFIGMPGLGAKLLAMMGSFKIGRSFEIGVTIVLLAVTLDRMSKAWVVKLPEHFERGTPFWIRHKFLLMAIGAFVGFTLIAQVVPILSEVGRKQSWSQGKEIDTLIKGFLAIDAVQAITNSIRYVLNIWVLNPLRDFMLSIPTVAFVLFISAAALLVAGRREAVLAAAFFGLVALTGWWDRSVITLYSVLAAVSIALLLGVPIGVVAARKEKTANAVLLACDTAQTFPSFIYLIPAIMLFGITATSVVMSILIFSMVPLVRYTIEGLRNVPDEMTEAADMAGATRMQKLWNVQLPLALPTMAVGFNQAIMFAFFMVIIAAFIGTQDLGQELQRTLAGTDLGKNFVLGICVTLMALTFDMVIMKWADDKKARLGLN”, the protein production is reported as “failed”. With “MSVVSPDPAPVPHDPQRRALLRWLVGGGALAGGLGVSAVAQGYRFGVTHEQWNLVGLTRPVRLALLTDLHYGLYIGAGSVRRWVDATLAECPDLILLGGDLVDSHFDAAARPQQTAALLAELGRLRAPLGVYAVWGNHDYGSFGRSISQSPEASRADWAARRDALRAGLAGQGVTVLLNEGRSLRDDLWLGGVDDLRMGEADSVAALRGSGTRATVLLAHNPDVLLRLRSAPGLVLSGHTHGGQVRLPLLGALKVPADPRFTMGWVRGPQGIPAYVSRGLGMSGLPVRNLCEPEITLLTLLPPGALEHHHHHH” the protein production was “failed”. In the case of “MSWFTTQRHSGLCRDFGRRWRRVATISSAIALICAQPLFAVPAAKPNEDFFSIAKSIELLGDVYKNVAQNYVDPVNVSEFMYSGIDGMLGQLDPYTAFLDEEQSGELDEITSGQYAGIGVTLGIFSGDLFIISVIDGQPAAKAGLKVGDQIIAIDGVKVSKKSIDEVRSTIKGSPGTNIRLSIKRDGQGPLTVISLTRGEVRISSVPFFGLFGSSGYVQMNSFSEHSREELSAAIRKIRQEAAKNRVVLNGIVLDLRGNPGGLLTSAVEVAGLFVEKNSRIVSTRGRAADSEQVYVTKTEPQEPTLPLVVMIDGDSASASEIVSGAIQELDRGVILGENSFGKGLVQSIINLPYDHILKMTTAKYYTPSGRLIQKPIARDESRRKVVLSNGDADSTKVFYTRNRRKVYGGGGIRPDVVAKADSLSEYQHKIENSGLLFRYASRFHRKHPEFRLQQLSSEPLYDDFNRFLEKEHFSFRSGAQKTLDSLKTLVQKEAGADKALAGQLDALDKALAASTRRNISRDSLHITAALQREIMRHYDERAALKRAIEDDPVAAKAFALLGDQKRYRSLLKP”, the protein production is reported as “failed”. In the case of “MSWKIIEKYRRILAQEEGNSPKRRGGKLTVCLVYPNRYGVAMSNLGFQAVHALLNAESDILCERAFLPDPDDLREYRRSGARLLSLESQEPLSSFDIIAFSVSFESDYLNIPVIFDLAGIPALAAERTGSHPLVMGGGAALFLNPEPVADFLDLIVVGEGEAILPTFLDHIRADGIGDRAMFLAGVAGLPGIYVPSLYATEYDGARLVSREAKDGAPEQVKRIWMAEPDGRATVSEILTPGTEFSDMYLVEVSRGCGRGCRFCAAGFIYHPYRQRSLDAVKAAVAEGLSHRRKIGLVGAAVSDFREIGELCRHILAEGGTVSVSSLRIDRLDEGMIEVLKASGHKTVALAPEGGSQRIRDLINKNLTEEQILAACDLLIGHDILNLKLYFIIGLPTETMDDLEEMALLVEKIRKRVIAAARKNKRLGEIILSVNPFVPKPFTPFQWCGMEDTPSLEKKLKYLQQTVGRLSNVRLIAESPKDAWLQALLSRGDRRLSGFLLRAAELGNWKRAAREFPVDTDFLVHRTIPLDEMLPWDVIASADAERLRREYLKATPPRLEHHHHHH”, the protein production is reported as “failed”. For “MSWLLVIAAGFLEVVWASGLKHADSFVDWLMIFVLIAVSFIMLIRSYRNIPMASAYTVFVGIGTAGTYVTGIFMGETFSGGQIFFLIVLLGGIIGMKMFTKENNAQSGGDE”, the protein production was “failed”. For “MSWMQNLKNYQHLRDPSEYMSQVYGDPLAYLQETTKFVTEREYYEDFGYG”, the protein production was “failed”. For “MSWWQDMDQRGGVSSPSGALASAEPAPASVTLAELLHLVQKGQEVPGLEKRHITATHGEPTASLLPRRPKPWEDAGSAASPCTIALDTRTQPPTIEERSRGSPAAQLDGGPRVS”, the protein production was “failed”.
